This experiment has as its target APC15R (the 15-aa repeat region of Adenomatous polyposis coli, repeats A-D with the linker region) (human). Briefly: cross-linking.

Chain of APC15R (the 15-aa repeat region of Adenomatous polyposis coli, repeats A-D with the linker region) (human) (P25054 2-2843): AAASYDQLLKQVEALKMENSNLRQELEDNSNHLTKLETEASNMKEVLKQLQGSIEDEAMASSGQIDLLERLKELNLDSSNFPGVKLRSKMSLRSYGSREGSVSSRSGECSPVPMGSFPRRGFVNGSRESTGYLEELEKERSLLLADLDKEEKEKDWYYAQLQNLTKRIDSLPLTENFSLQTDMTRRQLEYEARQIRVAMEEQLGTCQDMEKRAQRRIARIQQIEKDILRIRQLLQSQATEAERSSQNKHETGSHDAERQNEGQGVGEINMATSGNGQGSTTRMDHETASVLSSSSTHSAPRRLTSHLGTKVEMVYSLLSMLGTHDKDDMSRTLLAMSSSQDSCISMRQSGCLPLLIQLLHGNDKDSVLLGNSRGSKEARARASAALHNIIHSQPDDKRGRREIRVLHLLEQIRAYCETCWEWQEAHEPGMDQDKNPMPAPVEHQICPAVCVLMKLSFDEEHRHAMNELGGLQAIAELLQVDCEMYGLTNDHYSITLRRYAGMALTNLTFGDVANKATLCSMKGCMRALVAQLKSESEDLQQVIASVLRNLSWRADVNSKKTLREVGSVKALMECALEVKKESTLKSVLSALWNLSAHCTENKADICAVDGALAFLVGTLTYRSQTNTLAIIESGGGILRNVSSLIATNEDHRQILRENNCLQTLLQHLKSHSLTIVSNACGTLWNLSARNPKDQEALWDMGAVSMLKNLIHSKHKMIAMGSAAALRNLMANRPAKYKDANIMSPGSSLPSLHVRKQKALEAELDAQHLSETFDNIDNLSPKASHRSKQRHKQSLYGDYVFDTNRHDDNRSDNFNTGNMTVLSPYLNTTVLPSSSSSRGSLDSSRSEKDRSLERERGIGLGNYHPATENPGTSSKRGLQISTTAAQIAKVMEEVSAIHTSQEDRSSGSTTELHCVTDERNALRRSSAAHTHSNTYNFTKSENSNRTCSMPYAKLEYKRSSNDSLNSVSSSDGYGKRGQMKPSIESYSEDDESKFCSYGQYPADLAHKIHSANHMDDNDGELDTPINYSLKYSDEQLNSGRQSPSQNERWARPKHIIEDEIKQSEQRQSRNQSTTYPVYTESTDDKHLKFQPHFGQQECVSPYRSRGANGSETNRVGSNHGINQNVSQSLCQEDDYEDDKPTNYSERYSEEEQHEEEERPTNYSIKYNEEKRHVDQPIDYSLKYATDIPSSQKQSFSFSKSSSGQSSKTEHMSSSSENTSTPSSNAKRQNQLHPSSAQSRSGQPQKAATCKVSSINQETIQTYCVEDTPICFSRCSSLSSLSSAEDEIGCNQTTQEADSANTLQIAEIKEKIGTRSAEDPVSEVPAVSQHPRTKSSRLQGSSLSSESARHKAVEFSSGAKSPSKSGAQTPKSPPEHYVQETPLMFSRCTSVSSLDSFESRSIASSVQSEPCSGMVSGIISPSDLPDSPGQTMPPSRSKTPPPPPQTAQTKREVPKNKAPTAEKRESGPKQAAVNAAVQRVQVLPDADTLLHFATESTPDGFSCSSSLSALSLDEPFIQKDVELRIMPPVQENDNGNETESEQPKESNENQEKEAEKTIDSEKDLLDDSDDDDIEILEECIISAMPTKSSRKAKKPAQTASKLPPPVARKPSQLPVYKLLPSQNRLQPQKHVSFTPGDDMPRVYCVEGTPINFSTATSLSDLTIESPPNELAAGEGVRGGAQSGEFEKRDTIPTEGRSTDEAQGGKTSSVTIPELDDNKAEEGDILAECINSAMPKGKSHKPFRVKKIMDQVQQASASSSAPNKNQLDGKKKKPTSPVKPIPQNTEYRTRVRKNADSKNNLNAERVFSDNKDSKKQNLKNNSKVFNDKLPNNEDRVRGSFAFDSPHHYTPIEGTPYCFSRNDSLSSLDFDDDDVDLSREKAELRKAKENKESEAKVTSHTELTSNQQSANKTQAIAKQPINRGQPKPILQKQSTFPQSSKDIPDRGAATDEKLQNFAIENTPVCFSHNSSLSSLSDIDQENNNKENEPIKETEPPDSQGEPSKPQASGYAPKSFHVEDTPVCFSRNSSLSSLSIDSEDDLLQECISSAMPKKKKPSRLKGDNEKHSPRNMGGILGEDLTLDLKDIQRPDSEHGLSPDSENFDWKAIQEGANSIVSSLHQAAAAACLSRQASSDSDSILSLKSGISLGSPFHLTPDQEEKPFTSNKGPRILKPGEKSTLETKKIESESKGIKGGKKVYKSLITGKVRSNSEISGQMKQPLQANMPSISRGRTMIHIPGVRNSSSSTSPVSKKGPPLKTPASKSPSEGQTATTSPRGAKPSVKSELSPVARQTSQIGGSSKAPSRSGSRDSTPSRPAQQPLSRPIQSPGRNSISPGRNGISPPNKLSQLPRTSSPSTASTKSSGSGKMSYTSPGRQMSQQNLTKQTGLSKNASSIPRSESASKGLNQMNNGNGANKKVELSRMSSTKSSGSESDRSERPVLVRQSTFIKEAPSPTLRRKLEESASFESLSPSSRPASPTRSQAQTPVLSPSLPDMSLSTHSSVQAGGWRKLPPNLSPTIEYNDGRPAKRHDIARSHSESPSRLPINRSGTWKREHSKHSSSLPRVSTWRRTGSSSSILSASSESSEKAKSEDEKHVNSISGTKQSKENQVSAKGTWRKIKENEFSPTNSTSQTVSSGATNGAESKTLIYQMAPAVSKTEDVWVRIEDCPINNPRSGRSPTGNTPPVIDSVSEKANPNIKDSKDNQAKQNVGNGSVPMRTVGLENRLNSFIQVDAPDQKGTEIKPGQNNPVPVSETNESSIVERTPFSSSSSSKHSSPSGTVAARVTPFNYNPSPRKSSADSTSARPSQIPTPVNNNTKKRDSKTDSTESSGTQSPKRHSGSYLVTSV

As for “β-catenin (aa. 150–665), the central region of β-catenin (from UniProt P35222 150-665) (domain or fragment)”, the stoichiometry N (β-catenin per APC15R) was determined as 1.

The record behind these values is PMC8771494.
